Results: the supplement of paper PMC12042874
± gives the uncertainty stated by the source.

Experiment: amyloid nucleation score (Sup35N fusion, yeast selection) (log enrichment); library NNK3; higher = more nucleation; inactive = no reads after selection
Summary of the method: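 Three technical output replicates were used for random libraries. Psi-negative yeast expressing peptides of 20 random codons fused to Sup35N were induced with 100 μM copper sulfate for 24 hours and grown 7 days at 30°C on medium lacking adenine and uracil, and input and output plasmid inserts were Illumina-sequenced, excluding sequences with under 100 input reads. The nucleation score is the DiMSum log enrichment of output over input reads, centred on the mode score of non-aggregating sequences.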
For ELSTWLAYYVRLGYWCLIMM, the amyloid nucleation score was “inactive”. For RYGFDRIPIFLLNVAMNVYP, the amyloid nucleation score was 0.535 ± 0.58. In the case of AYNSYELVRAL, the amyloid nucleation score is reported as “inactive”. In the case of GFIVGLLARSTIFTTNYMLK, the amyloid nucleation score is reported as “inactive”. In the case of AGFSVVSRPLFVRQLPV, the amyloid nucleation score is reported as “inactive”. For YQDLP, the amyloid nucleation score was “inactive”. In the case of NVRWLFLAVSCQL, the amyloid nucleation score is reported as “inactive”. In the case of KYWSLGNGCTTKRWSGGFVS, the amyloid nucleation score is reported as “inactive”. With EFVFECLYGTLLGRALMLRP the amyloid nucleation score was “inactive”. For ILFSISSVMF, the amyloid nucleation score was 0.605 ± 0.19. In the case of TDVLELVSTHCRYGFSVPQP, the amyloid nucleation score is reported as “inactive”. In the case of DLQRLSNRKSKGLWSGCIGK, the amyloid nucleation score is reported as “inactive”. For SGRCRSGRQAIRCCILLNVL, the amyloid nucleation score was “inactive”. AKYFKFKHNVKGVHWKHVPE showed an amyloid nucleation score of -0.074 ± 0.53. With KMTLYIFCLAFMLWESNQII the amyloid nucleation score was “inactive”. With LYGVNSCLIH the amyloid nucleation score was “inactive”. With VVYDPVICDGWALDGGVGAR the amyloid nucleation score was “inactive”. With DDDEVASCLPYWRCAALKSG the amyloid nucleation score was “inactive”. In the case of WSFCGLYLNI, the amyloid nucleation score is reported as 1.62 ± 0.095. With WALTRLRAPPF the amyloid nucleation score was “inactive”. With VIHQIMIMYGVYPASMKLFF the amyloid nucleation score was 1.77 ± 0.098. For TSCQLWETIIKMLDHARTGA, the amyloid nucleation score was “inactive”. In the case of IDVKSLSWKMYRRLGTIPYT, the amyloid nucleation score is reported as -0.317 ± 0.93. ILKSTELWKRESQFSQRVGA gave an amyloid nucleation score of 4.44 ± 0.057. Work on RFYVYIINHHAPVYWVSRYS yielded an amyloid nucleation score of 2.59 ± 0.065. LFHHNCWNSNLSKVYMPACN gave an amyloid nucleation score of 0.761 ± 0.1. Work on YLKWTNVVKMGHSKSSTE yielded an amyloid nucleation score of 1.29 ± 0.1. In the case of LGAAFCAPSSSYGKMGP, the amyloid nucleation score is reported as “inactive”. In the case of HNRKYYTI, the amyloid nucleation score is reported as “inactive”. In the case of SFEYHNWNDM, the amyloid nucleation score is reported as 0.361 ± 0.18. In the case of TYTSESWVHLVKYGSLNELE, the amyloid nucleation score is reported as “inactive”. For TMHGAQFCD, the amyloid nucleation score was “inactive”. In the case of DEMPRVSMRVNNMPGCDNDE, the amyloid nucleation score is reported as “inactive”. In the case of VSINRRLFCLLGDDFTS, the amyloid nucleation score is reported as “inactive”. In the case of MLAVRMVDTPSSCQRIKPDN, the amyloid nucleation score is reported as “inactive”. IFFQCNVAMQKDSDAKGTYV gave an amyloid nucleation score of 1.84 ± 0.067. With LVCHFLDEDCLFACILQNMR the amyloid nucleation score was “inactive”. In the case of AVALY, the amyloid nucleation score is reported as “inactive”. Work on FLTHVHQINADAFYAIL yielded an amyloid nucleation score of 1.84 ± 0.11. For SFNSRIIKRDDCFMDLIFWT, the amyloid nucleation score was 1.07 ± 0.12. With SCSLCWPIHRDFHMCTSSVC the amyloid nucleation score was “inactive”. In the case of YVIVLNR, the amyloid nucleation score is reported as 2.3 ± 0.069. For IVGNLRDKDNYIVGRLEDSD, the amyloid nucleation score was “inactive”. For DYKKVGDSLFTVFVFRFINV, the amyloid nucleation score was “inactive”. In the case of TACQNDCVGG, the amyloid nucleation score is reported as “inactive”. For TIVNGNVEFGMKLEWEHGCI, the amyloid nucleation score was “inactive”. With HRKKYFLSPIVGPRTPRLCT the amyloid nucleation score was “inactive”. For NFDTDGTALRKLR, the amyloid nucleation score was “inactive”. Work on CFVFTFGT yielded an amyloid nucleation score of 1.38 ± 0.082. In the case of FRVEFTVMFLGVCTYSGDAL, the amyloid nucleation score is reported as -0.329 ± 0.65. In the case of GVFMLVSNFASNWAT, the amyloid nucleation score is reported as “inactive”. With WISFFT the amyloid nucleation score was “inactive”. In the case of LRAKFLILWSRFMQGMQGVT, the amyloid nucleation score is reported as “inactive”. NQNIMWIAKYIF showed an amyloid nucleation score of 0.845 ± 0.14. With LCRGCSLGACGNSGLKYCGW the amyloid nucleation score was “inactive”. With VCPVERSY the amyloid nucleation score was “inactive”. With WRVLFSILSVTAVWATYAGL the amyloid nucleation score was “inactive”. With MSMPWNNHMISNVYRSYFVA the amyloid nucleation score was “inactive”. Substance CVSYAISNGLRMEFSKENQY has an amyloid nucleation score of 0.415 ± 0.14. For TALGSDMTYITARRI, the amyloid nucleation score was 0.671 ± 0.15. In the case of ETSVTAHHLGIGVLLRFQQ, the amyloid nucleation score is reported as “inactive”. In the case of SLLYYFWTNPGAFSKYIYSM, the amyloid nucleation score is reported as “inactive”. IFLLAVNSGINVTGCPLPKG gave an amyloid nucleation score of 2.28 ± 0.09. For KVRSARVRMHHNRYDKEMSG, the amyloid nucleation score was “inactive”. With IYGHCCIISAWVWGNESLVL the amyloid nucleation score was “inactive”. For SNDVCVC, the amyloid nucleation score was “inactive”. With YRSNEFISD the amyloid nucleation score was “inactive”. For EKVSYFSNNVVLIVVINRVC, the amyloid nucleation score was “inactive”. In the case of LGLECVGPFCKGVYFWLDG, the amyloid nucleation score is reported as “inactive”. With GIQIYAMFTFSKSFMLGNWY the amyloid nucleation score was “inactive”. For ENSEW, the amyloid nucleation score was “inactive”. With CEYVNKLHTVGVHWGTGSRE the amyloid nucleation score was “inactive”. For ILYLVR, the amyloid nucleation score was “inactive”. Substance YQWNIMLKIDCSIDVVVVSN has an amyloid nucleation score of 0.827 ± 0.27. YYLCLYLSPLLL gave an amyloid nucleation score of 1.28 ± 0.11. For CVNGTKEGTVRGSRARGRSF, the amyloid nucleation score was “inactive”. In the case of VKEMFKF, the amyloid nucleation score is reported as “inactive”. With LLKVVD the amyloid nucleation score was “inactive”. In the case of FVSDRSSGYTGMLIKDAL, the amyloid nucleation score is reported as “inactive”. With FTLFMDRVIFASSVDSTEIL the amyloid nucleation score was “inactive”. For LVNLTVTYISQYFPFYDSPT, the amyloid nucleation score was 2.92 ± 0.062. With NTDPTQVFQASN the amyloid nucleation score was “inactive”. In the case of NGVLASWWC, the amyloid nucleation score is reported as “inactive”. In the case of AMNNLLFTLYVF, the amyloid nucleation score is reported as “inactive”. With VVWLDNKDVLTWHARCLCPM the amyloid nucleation score was “inactive”. With HFFLLMLSYSYYDCVFRYKC the amyloid nucleation score was “inactive”. In the case of RPYHSEKYDKFVDAMSFWCW, the amyloid nucleation score is reported as “inactive”. For IGCWTSYSWNRSRKFYMQQE, the amyloid nucleation score was 0.799 ± 0.17. For KFNSRNRS, the amyloid nucleation score was “inactive”. Substance TVSTNDFSL has an amyloid nucleation score of -0.61 ± 0.9. For MECELHTDGRSVACRHT, the amyloid nucleation score was “inactive”. In the case of RHGFWSVSFVSRQFSNILSC, the amyloid nucleation score is reported as “inactive”. GSGYVTGGSSLLRARWSRGG gave an amyloid nucleation score of 1.26 ± 0.17. With RIHVSKLLTWTGSSLVVWSA the amyloid nucleation score was “inactive”. In the case of MCKGR, the amyloid nucleation score is reported as “inactive”. Work on MVFAMTYVLCDDMWSVIGHF yielded an amyloid nucleation score of 0.141 ± 0.26. In the case of HNASKRMDICKASSVYKWRI, the amyloid nucleation score is reported as “inactive”. In the case of TRRPAQFVGPI, the amyloid nucleation score is reported as 0.645 ± 0.16. Work on CLKSA yielded an amyloid nucleation score of -0.912 ± 0.93. For SQRYLNLVPKYLSRLVMCGI, the amyloid nucleation score was “inactive”. In the case of LRFTRRFYSRGWVRW, the amyloid nucleation score is reported as “inactive”. For RRWCLVAIIPIELNAGTEQH, the amyloid nucleation score was “inactive”. With CQDHVKNITAIPHSSGMYMS the amyloid nucleation score was “inactive”. With SFQAWVYFVSRLFLECFSSR the amyloid nucleation score was “inactive”. With VFVDYCNKYGEFVSGTAQVS the amyloid nucleation score was “inactive”. For WSWGTG, the amyloid nucleation score was “inactive”. Substance VWMIPISCKSQFLFEWYGHY has an amyloid nucleation score of 1.12 ± 0.18. In the case of NWYLALSGLVLSPYRGIRSG, the amyloid nucleation score is reported as “inactive”. With ILLFYLSLKRCSLQARGLDS the amyloid nucleation score was -0.659 ± 1.8. For GSNYSWSLLL, the amyloid nucleation score was “inactive”. For TAALRIDDQRKAYLGVPRFS, the amyloid nucleation score was “inactive”. PIYMYLFSTHVSNQFVKGAF showed an amyloid nucleation score of 3.08 ± 0.06. In the case of YSVSEIRKSHLWITINMAVF, the amyloid nucleation score is reported as “inactive”. MWVGDKPSGSRRLVLGVRVT gave an amyloid nucleation score of -0.258 ± 0.91. For GYDAGAWPRWRRSIWVHGYG, the amyloid nucleation score was “inactive”. For YFCLQNFRVFLGRYMIHNYL, the amyloid nucleation score was “inactive”. In the case of HLGFF, the amyloid nucleation score is reported as “inactive”. In the case of GWVFTMDFTSYLECTDMGRS, the amyloid nucleation score is reported as “inactive”. With LISTWNMAYSLSLIMMDHHS the amyloid nucleation score was “inactive”.
